From US20220228157A1, “GENE EDITING IN DIVERSE BACTERIA” (priority 2019, published 2022)
Substitutions are numbered along the chain they refer to. Names and notes keep the numbering of the source.

B1: LlMutL.E33K: L. lactis MutL carrying the equivalent dominant negative mutation, SEQ ID NO: 513 (protein)
chain: MGKIIELNEALANQIAAGEVVERPASVVKELVKNSIDAGSSKIIINVEEAGLRLIEVIDNGLGLEKEDVALALRRHATSKIKDSADLFRIRTLGFRGEALPSIASVSQMTIETSNAQEEAGTKLIAKGGTIETLEPLAKRLGTKISVANLFYNTPARLKYIKSLQAELSHITDIINRLSLAHPEISFTLVNEGKEFLKTAGNGDLRQVIAAIYGIGTAKKMREINGSDLDFELTGYVSLPELTRANRNYITILINGRFIKNFLLNRAILEGYGNRLMVGRFPFAVLSIKIDPKLADVNVHPTKQEVRLSKERELMTLISKAIDETLSEGVLIPEALENLQGRAKEKGTVSVQTELPLQNNPLYYDNVRQDFFVREEAIFEINKNDNSDSLTEQNSTDYTVNQPETGSVSEKITDRTVESSNEFTDRTPKNSVSNFGVDFDNIEKLSQQSTFPQLEYLAQLHATYLLCQSKEGLYLVDQHAAQERIKYEYWKDKIGEVSMEQQILLAPYLFTLPKNDFIVLAEKKDLLHEAGVFLEEYGENQFILREHPIWLKETEIEKSINEMIDIILSSKEFSLKKYRHDLAAMVACKSSIKANHPLDAESARALLRELSTCKNPYSCAHGRPTIVHFSGDDIQKMFRRIQETHRSKAASWKDFE
B2: MutL.E32K from E. coli: dominant negative mismatch repair protein, SEQ ID NO: 515 (protein)
chain: MPIQVLPPQLANQIAAGEVVERPASVVKELVKNSLDAGATRIDIDIERGGAKLIRIRDNGCGIKKDELALALARHATSKIASLDDLEAIISLGFRGEALASISSVSRLTLTSRTAEQQEAWQAYAEGRDMNVTVKPAAHPVGTTLEVLDLFYNTPARRKFLRTEKTEFNHIDEIIRRIALARFDVTINLSHNGKIVRQYRAVPEGGQKERRLGAICGTAFLEQALAIEWQHGDLTLRGWVADPNHTTPALAEIQYCYVNGRMMRDRLINHAIRQACEDKLGADQQPAFVLYLEIDPHQVDVNVHPAKHEVRFHQSRLVHDFIYQGVLSVLQQQLETPLPLDDEPQPAPRSIPENRVAAGRNHFAEPAAREPVAPRYTPAPASGSRPAAPWPNAQPGYQKQQGEVYRQLLQTPAPMQKLKAPEPQEPALAANSQSFGRVLTIVHSDCALLERDGNISLLSLPVAERWLRQAQLTPGEAPVCAQPLLIPLRLKVSAEEKSALEKAQSALAELGIDFQSDAQHVTIRAVPLPLRQQNLQILIPELIGYLAKQSVFEPGNIAQWIARNLMSEHAQWSMAQAITLLADVERLCPQLVKTPPGGLLQSVDLHPAIKALKDE
B3: L1SSB C8:EcSSB (protein)
chain: MINNVVLVGRITRDPELRYTPQNQAVATFSLAVNRQFKNANGEREADFINCVIWRQQAENLANWAKKGALIGVTGRIQTRNYENQQGQRVYVTEVVADSFQMLESRSARDGMGGGASAGSYSAPSQSTNNTPRPQTNNNSATPNFGRDADPFGSSPMEMEDFDDDIPF
B4: L1SSB C7:EcSSB (protein)
chain: MINNVVLVGRITRDPELRYTPQNQAVATFSLAVNRQFKNANGEREADFINCVIWRQQAENLANWAKKGALIGVTGRIQTRNYENQQGQRVYVTEVVADSFQMLESRSARDGMGGGASAGSYSAPSQSTNNTPRPQTNNNSATPNFGRDADPFGSSPMEIMEIFDDDIPF
B5: L1SSB C8:PaSSB (protein)
chain: B3 chain with D161S
B6: L1SSB C8:MsSSB (protein)
chain: B3 chain with D161G, F162A, D165E, I166P
B7: L1SSB C7:PaSSB (protein)
chain: B4 chain
B8: L1SSB C7:MsSSB (protein)
chain: B4 chain with F163A, D166E, I167P
B9: SR041: SSAP candidate (protein)
chain: MAKIKLTNVRIAFINNLRTPAEFEAGDGKFRYSATFLVEKGSANDKAIEAAIKSVAVEGWAKKADAMLESFRSNSNKFCYQNGDLKDFDGFEGNMYIAAHRKRDDGRPLLLDNVADPETGKPARLVDANGEWLAGKEGRIYAGCYVNATIDIYAQTKTNPGIRCGLMGVQYHGPGDSFSGASRANEDDFEATAPETEDELD
modifications: Burkholderia phage BcepC6B
notes: SSAP candidate
B10: SR081: SSAP candidate (protein)
chain: MSKEFYARLAAIQENLNAPKNQYNSFGKYKYRSCEDILEGVKPLLNGLFLSISDEVVLIGDRYYVKATATITDGENSHTATALAREEESKKGMDSAQVTGATSSYARKYCLNGLFGIDDAKDADTDEHKHQQNAAAKQSNPSPTPEQVLKAFTDAAMQKNTVEELKQAFAKAWKMLEGTPEQHKAQDVYNIRRDELEGAAA
modifications: Bacteriophage HK022
notes: SSAP candidate
B11: SR024: SSAP candidate (protein)
chain: MAIDNQSTKVITGKVRLSYTHVFEPQENDSGDMKYSTAILIPKSDKETLRKIKAAVDAAKELGKSKWGGKIPANCKTPLRDGDEERPDDEAYAGHYFLNASSKNKPGVAKPIGKDGNGKTKFQEITDSTEVYSGCYAKVSLNFYPFDAKGNRGVAAGLNNIVKVQDGDFLGGRSSVNDDFANEDFDDIVDISDDDDFLN
modifications: Paenibacillus lactis 154
notes: SSAP candidate
B12: PF003: SSAP candidate (protein)
chain: MAENEKQALLQEENKSENVVSTVKRTALATNPFSDTDQFNNIFKMAQLISQSDMIPATYKGKPMNCVIALEQANRMGVSPLMVMQNLYVVKGVPSWSGQGCMMIIQGCGKFRDVDYVYSGEKGTDSRSCKVVATRISDGKRIEGTEITMQMVKSEGWISNTKWKNMPEQMLGYRAATFFARMYCPNELNGFATEGEAEDMNHKPQRIEAINVLGDTAHE
modifications: Clostridium sp FS41
notes: SSAP candidate
B13: SR033: SSAP candidate (protein)
chain: MADYEEQMLALQKPLQPDRVVWRVQQSGFSKQGKPWAMVLAYMDNRAVQERFDEVFGIAGWKNEFKTAPDGGTLCGISVKFGDEWVTKWDGAENTQVEAVKGGLSGSMKRAAVQWGVGRYLYDLPTSFAQTSLEKTDGWNKVFDKNSKKNFWWKNPQLPSWALPQNSKVQNTKADFTEEEIPNPPKLYVVGKDKKEFDEKKLQAVVNKMAIIAGKDYGASVDEQNDWLKMPLDEAYNDIEKFVDIKKEEQND
modifications: Lactococcus phage bIL286,Lactococcus lactis subsp lactis (strain IL1403) (Streptococcuslactis)
notes: SSAP candidate

tested on: L. lactis; test: Allelic recombination frequency, selective vs non-selective plates; assay type: cell-based, Lactococcus lactis; details: co-expressed with PapRecT and PaSSB
Experimental: Four variants known to enable high genome editing efficiency were selected (Redβ and PapRecT in E. coli, LrpRecT in L. lactis, and MspRecT in M. smegmatis), and tested codon optimized versions of all four in both E. coli (gram-negative), and L. lactis (gram-positive). Genome editing efficiency was measured by introducing oligos encoding known antibiotic resistance mutations, and compared the antibiotic resistant cell counts to the total number of viable cells in the population (FIGS. 17E-17F). […] In L. lactis, LrpRecT was the only functional homolog, and improved oligo incorporation 7,700-fold, while the three other RecT variants were nearly non-functional, improving oligo incorporation less than 7-fold (FIG. 17H). No RecT protein functioned well both in E. coli and L. lactis.
A single colony of L. lactis was grown overnight to saturation. 500 μL of dense culture was inoculated into 5 mL of fresh media, supplemented with 500 mM sucrose and 2.5% (w/v) glycine, and grown for 3 hours. To induce gene expression of the pJP005 vector for recombineering experiments, the cells were grown for an additional 30 min after adding 1 ng/mL freshly diluted nisin, unless stated otherwise. For the optimized condition (FIG. 20B), 10 ng/mL nisin was used. Cells were pelleted at 4° C. by centrifugation at 5,000×g for 5 minutes and washed twice with 2 mL of ice-cold electroporation buffer (500 mM sucrose containing 10% (w/v) glycerol) by centrifugation at 13,200×g for 2.5 minutes. Cells were resuspended in 80 μL ice-cold electroporation buffer containing DNA and transferred to a pre-chilled 0.1 cm electroporation cuvette.
Electrocompetent cells were electroporated with 90-mer oligos at: 1 uM for E. coli, 50 μg for L. lactis, and 10 uM for C. crescentus. 70-mer oligos were used at 1 μg for M. smegmatis. All oligos were obtained from IDT and can be found under “Oligonucleotides for genome editing” in materials and methods. For dsDNA experiments L. lactis was electroporated with 1.5 μg purified linear dsDNA. Cells were electroporated using a Bio-Rad gene pulser set to 25 μF, 200 S2, and 1.8 kV for E. coli, 2.0 kV for L. lactis, and 1.5 kV for C. crescentus and to 1000Ω and 2.5 kV for M. smegmatis. Immediately after electroporation, cells were recovered in fresh media for 3 hours for E. coli, 1 hour for L. lactis, overnight for M. smegmatis and overnight for C. crescentus. L. lactis recovery media was supplemented with MgCl2 and CaCl2) at a concentration of 20 mM and 2 mM, respectively. E. coli recovery media was supplemented with carbenicillin. M. smegmatis recovery media was supplemented with hygromycin. C. crescentus recovery media was supplemented with 0.3% xylose and kanamycin. After recovery, the cells were serial diluted and plated on non-selective vs. selective agar plates to obtain approximately 50-500 CFU/plate. Colonies were counted using a custom script in Fiji, and allelic recombination frequency was calculated by dividing the number of colonies on selective plates, with the number of colonies on non-selective plates.

Row | Molecule | Function of dominant negative MutL
1 | B1 | enabled the efficient introduction of 1 bp pair changes
2 | B2 | nonfunctional

same assay, conditions: co-expressed with Redβ

Row | Molecule | Genome editing efficiency lower than Redβ with EcSSB [fold]
3 | B3 | ≤ 2.6
4 | B4 | ≤ 5.9

same assay, conditions: co-expressed with the RecT

Row | Molecule | Editing efficiency with chimeric SSB
5 | B5 | completely recovered
6 | B6 | completely recovered
7 | B7 | completely recovered
8 | B8 | completely recovered

tested on: Staphylococcus aureus; test: SSAP candidate enrichment; assay type: cell-based; details: not given
Experimental: The editing efficiency of SSAP candidates was also tested in Agrobacterium tumefaciens and in Staphylococcus aureus using the methods described above.

Row | Molecule | Editing efficiency (enrichment) relative to other SSAP candidates
9 | B9 | increase in editing efficiency
10 | B10 | increase in editing efficiency
11 | B11 | increase in editing efficiency
12 | B12 | increase in editing efficiency
13 | B13 | increase in editing efficiency
